How the values were obtained:
[1] = test system: human melanoma cells (MV3); assay: apoptosis by caspase-3 levels in melanoma MV3 cells; type: cell-based
Experimental: (§1) The mechanisms of the cancer-suppressing effect observed for obtustatin were investigated as follows. Dermal microvascular endothelial cells (EC) and human melanoma cells (MV3) were cultured and exposed to TNF-α, vincristine and obtustatin. (TNF-α and vincristine are compounds which induce cell death by apoptosis in both normal and cancerous cells.) Control cells received only vehicle. The extent of apoptosis was measured by determining caspase-3 levels.

[2] = test system: dermal microvascular endothelial cells (EC); assay: apoptosis by caspase-3 levels in dermal microvascular endothelial cells; type: cell-based
Experimental: as §1

α9β1 integrin = target: T1, α9β1 integrin (Homo sapiens, UniProt P05556+Q13797); assay: adhesion of SW480α9 cells to VCAM-1; type: cell-based; conditions: α9β1, VCAM-1
T1 construct: expressed in transfected cells; host or cells: SW480α9 cells

α5β1 integrin = target: T2, α5β1 integrin (Homo sapiens, UniProt P05556+P08648); assay: adhesion of K562 cells to fibronectin; type: cell-based
T2 construct: endogenous in cells; host or cells: K562 cells
Experimental: (§2) Adhesive ligands for the selected integrins consisted of collagen IV (0.2 μg/well), collagen I, fibronectin, or vascular cell adhesion molecule-1 (VCAM-1). Adhesive ligands in 0.02 M acetic acid were immobilized overnight at 4° C. on a 96-well plate. Plates were then blocked with 1% (w/v) BSA (bovine serum albumin) in Hank's Balanced Salt Solution (HBSS) containing 3 mM Mg^2+ at room temperature for 1-2 hours to prevent cells from non-specifically binding to the plates. α1K562, α2K562, K562, A5, and Jurkat cells expressing the α1β1, α2β1, α5β1, αIIbβ3, and α4β1 integrins respectively were labeled by incubation with 12.5 μM 5-chloromethylfluorescein diacetate (CMFDA) in HBSS for 15 minutes at 37° C. CMFDA labeled cells were then pelleted, washed and resuspended in HBSS buffer containing 3 mM Mg^2+ and 1% (w/v) BSA. […] Plates were then incubated at 37° C. for 30 minutes as indicated in Table 5 and washed three times with HBSS containing 3 mM Mg^2+ and 1% (w/v) BSA to remove unbound cells. Bound cells were lysed using 0.5% (v/v) Triton X-100 in H2O. Fluorescent CMFDA released by lysis of adherent cells in a given well was read using a Cytofluor 2350 fluorescence plate reader.
(§3) The effect of obtustatin, viperisrastatin, echistatin, and eristostatin on the binding of selected integrins to their adhesive ligands was evaluated using the cell adhesion assay described in Example 6. The integrin-expressing cells, integrins and corresponding adhesive ligands, and the results of the cell adhesion assay are shown in Table 6.

α2β1 integrin = α2β1 integrin (Homo sapiens, UniProt P05556+P17301); assay: adhesion of α2K562 cells to collagen I; type: cell-based; parameters: expressed in transfected cells; host or cells: α2K562 cells
Experimental: as §2, §3

α1β1 integrin [3] = target: T3, α1β1 integrin (Homo sapiens, UniProt P05556+P56199); assay: adhesion of α1K562 cells to collagen I; type: cell-based; conditions: α1β1, Coll I
T3 construct: expressed in transfected cells; host or cells: α1K562 cells
Experimental: as §2, §3

α1β1 integrin [4] = target: T4, α1β1 integrin (Mus musculus, UniProt P09055+Q3V3R4); assay: adhesion of B16F10 cells to collagen IV; type: cell-based; conditions: for IC50: α1β1, Coll IV
T4 construct: endogenous in cells; host or cells: B16F10 cells

α4β1 integrin = target: T5, α4β1 integrin (Homo sapiens, UniProt P05556+P13612); assay: adhesion of Jurkat cells to VCAM-1; type: cell-based; conditions: α4β1, VCAM-1
T5 construct: endogenous in cells; host or cells: Jurkat cells
Experimental: as §2, §3

α1β1 integrin [5] = target: T3, α1β1 integrin; assay: adhesion of α1K562 cells to immobilized collagen IV; type: cell-based; conditions: for IC50: α1K562 cells, α1β1, collagen IV
Experimental: Collagen IV (0.2 μg/well) in 0.02 M acetic acid was immobilized by incubation overnight at 4° C. on a 96-well plate. Plates were then blocked with 1% (w/v) BSA (bovine serum albumin) in Hank's Balanced Salt Solution (HBSS) containing 3 mM Mg^2+ at room temperature for 1-2 hours to prevent cells from non-specifically binding to the plates. α1K562 cells were labeled by incubation with 12.5 μM 5-chloromethylfluorescein diacetete (CMFDA) in HBSS for 15 minutes at 37° C. CMFDA labeled α1K562 cells were then pelleted, washed and resuspended in HBSS buffer containing 3 mM Mg^2+ and 1% BSA. […] The plates were washed three times with HBSS containing 3 mM Mg^2+ and 1% (w/v) BSA to remove unbound cells. Bound cells were lysed using 0.5% (v/v) Triton X-100 in H2O. Fluorescent CMFDA released by lysis of adherent cells in a given well was read using a Cytofluor 2350 fluorescence plate reader.
as §2, §3

angiogenesis = assay: Japanese quail chorioallantoic membrane (CAM) angiogenesis assay; type: in vivo; conditions: 20 μg and 50 μg, in words
Experimental: The disintegrins obtustatin and eristostatin were evaluated for their effect on angiogenesis via a Japanese quail chorioallantoic membrane (CAM) assay, as is known in the art (see, for example, Parsons-Wingerter P et al., “A Novel Assay of Angiogenesis in the Quail Chorioallantoic Membrane: Stimulation by bFGF and Inhibition by Angiostatin According to Fractal Dimension and Grid Intersection.” Microvascular Research 55(3):201-214, 1998, the disclosure of which is herein incorporated by reference).

α6β1 integrin = target: T6, α6β1 integrin (Homo sapiens, UniProt P05556+P23229); assay: adhesion of α6K562 cells to laminin; type: cell-based; conditions: α6β1, LM
T6 construct: expressed in transfected cells; host or cells: α6K562 cells

αvβ3 integrin = target: T7, αvβ3 integrin (Homo sapiens, UniProt P05106+P06756); assay: adhesion of JY cells to vitronectin; type: cell-based; conditions: αvβ3, VN
T7 construct: endogenous in cells; host or cells: JY cells

α1β1 integrin [6] = target: T3, α1β1 integrin; assay: adhesion of HS.939T cells to collagen IV; type: cell-based; conditions: α1β1, Coll IV
Lewis lung carcinoma = Lewis lung carcinoma growth in syngeneic mouse model; type: in vivo, C57BL/6 mice; conditions: 5 mg/kg intraperitoneally once daily for eight days
Experimental: Lewis lung carcinoma cells (1×10^6) were injected under the skin of the C57BL/6 mice (Tacoma Inc., Germantown, N.Y.), and tumors were allowed to grow for one week. The average tumor size after one week of growth was approximately 0.08 cm^3. The one-week time-point was called “day 0.” Two treatment groups of four mice each were injected intraperitoneally once daily with either 5 mg/kg obtustatin or 5 mg/kg echistatin beginning on day 0 for a total of eight days. A control group of four mice received only PBS. Tumor volume was measured daily using the formula length×width^2×0.52.

αIIbβ3 integrin = target: T8, αIIbβ3 integrin (Homo sapiens, UniProt P05106+P08514); assay: adhesion of A5 cells to fibrinogen; type: cell-based
T8 construct: expressed in transfected cells; host or cells: A5 cells
Experimental: as §2, §3

T3 sequence (P56199 29-1179): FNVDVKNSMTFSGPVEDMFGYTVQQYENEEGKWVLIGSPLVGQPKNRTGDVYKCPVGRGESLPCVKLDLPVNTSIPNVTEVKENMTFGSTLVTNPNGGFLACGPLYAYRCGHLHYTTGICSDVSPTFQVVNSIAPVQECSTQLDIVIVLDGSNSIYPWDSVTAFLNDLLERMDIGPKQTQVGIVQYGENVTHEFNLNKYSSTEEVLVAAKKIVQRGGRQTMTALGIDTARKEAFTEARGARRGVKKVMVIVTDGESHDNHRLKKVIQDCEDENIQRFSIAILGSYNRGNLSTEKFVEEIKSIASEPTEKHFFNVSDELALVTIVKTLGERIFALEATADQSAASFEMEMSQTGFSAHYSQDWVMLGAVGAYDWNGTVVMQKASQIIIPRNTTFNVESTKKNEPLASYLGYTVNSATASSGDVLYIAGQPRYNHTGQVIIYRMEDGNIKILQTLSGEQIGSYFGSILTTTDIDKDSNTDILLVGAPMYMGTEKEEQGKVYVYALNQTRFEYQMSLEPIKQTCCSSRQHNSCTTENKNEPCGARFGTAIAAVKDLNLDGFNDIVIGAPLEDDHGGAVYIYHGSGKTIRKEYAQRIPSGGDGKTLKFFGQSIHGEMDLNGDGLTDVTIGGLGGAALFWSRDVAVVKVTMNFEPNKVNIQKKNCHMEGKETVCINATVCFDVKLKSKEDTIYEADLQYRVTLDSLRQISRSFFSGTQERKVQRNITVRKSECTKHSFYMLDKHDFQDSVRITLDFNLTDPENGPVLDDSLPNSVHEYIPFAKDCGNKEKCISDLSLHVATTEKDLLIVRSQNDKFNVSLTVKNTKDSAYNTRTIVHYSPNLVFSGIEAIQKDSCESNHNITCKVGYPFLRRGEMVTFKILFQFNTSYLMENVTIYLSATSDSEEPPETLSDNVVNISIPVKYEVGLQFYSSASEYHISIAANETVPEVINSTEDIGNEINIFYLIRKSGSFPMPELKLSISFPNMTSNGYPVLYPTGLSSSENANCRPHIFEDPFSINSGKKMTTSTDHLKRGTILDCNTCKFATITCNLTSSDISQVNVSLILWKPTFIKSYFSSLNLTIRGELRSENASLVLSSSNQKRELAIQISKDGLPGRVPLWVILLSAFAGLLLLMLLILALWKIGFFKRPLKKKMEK
T3 sequence (P05556 21-798): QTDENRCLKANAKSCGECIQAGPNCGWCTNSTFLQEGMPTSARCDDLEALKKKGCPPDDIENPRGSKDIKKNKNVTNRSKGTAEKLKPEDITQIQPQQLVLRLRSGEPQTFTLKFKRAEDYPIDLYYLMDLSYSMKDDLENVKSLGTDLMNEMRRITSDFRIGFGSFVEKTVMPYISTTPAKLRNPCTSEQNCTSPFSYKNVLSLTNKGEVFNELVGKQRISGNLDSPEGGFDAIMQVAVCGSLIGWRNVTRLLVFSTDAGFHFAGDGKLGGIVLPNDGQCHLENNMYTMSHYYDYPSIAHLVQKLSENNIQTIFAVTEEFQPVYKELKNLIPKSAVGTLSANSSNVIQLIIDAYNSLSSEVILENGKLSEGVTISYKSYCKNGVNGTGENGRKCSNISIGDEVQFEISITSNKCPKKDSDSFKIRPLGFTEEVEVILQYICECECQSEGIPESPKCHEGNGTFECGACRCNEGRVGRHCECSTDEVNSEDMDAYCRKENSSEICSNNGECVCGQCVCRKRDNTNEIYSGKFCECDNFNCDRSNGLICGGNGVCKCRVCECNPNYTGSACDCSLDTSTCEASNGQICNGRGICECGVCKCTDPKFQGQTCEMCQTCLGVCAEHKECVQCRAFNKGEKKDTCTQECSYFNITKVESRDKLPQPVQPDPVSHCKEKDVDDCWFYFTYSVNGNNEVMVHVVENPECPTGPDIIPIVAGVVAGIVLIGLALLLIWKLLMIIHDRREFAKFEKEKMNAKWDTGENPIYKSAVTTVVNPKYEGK
T4 sequence (Q3V3R4 29-1179): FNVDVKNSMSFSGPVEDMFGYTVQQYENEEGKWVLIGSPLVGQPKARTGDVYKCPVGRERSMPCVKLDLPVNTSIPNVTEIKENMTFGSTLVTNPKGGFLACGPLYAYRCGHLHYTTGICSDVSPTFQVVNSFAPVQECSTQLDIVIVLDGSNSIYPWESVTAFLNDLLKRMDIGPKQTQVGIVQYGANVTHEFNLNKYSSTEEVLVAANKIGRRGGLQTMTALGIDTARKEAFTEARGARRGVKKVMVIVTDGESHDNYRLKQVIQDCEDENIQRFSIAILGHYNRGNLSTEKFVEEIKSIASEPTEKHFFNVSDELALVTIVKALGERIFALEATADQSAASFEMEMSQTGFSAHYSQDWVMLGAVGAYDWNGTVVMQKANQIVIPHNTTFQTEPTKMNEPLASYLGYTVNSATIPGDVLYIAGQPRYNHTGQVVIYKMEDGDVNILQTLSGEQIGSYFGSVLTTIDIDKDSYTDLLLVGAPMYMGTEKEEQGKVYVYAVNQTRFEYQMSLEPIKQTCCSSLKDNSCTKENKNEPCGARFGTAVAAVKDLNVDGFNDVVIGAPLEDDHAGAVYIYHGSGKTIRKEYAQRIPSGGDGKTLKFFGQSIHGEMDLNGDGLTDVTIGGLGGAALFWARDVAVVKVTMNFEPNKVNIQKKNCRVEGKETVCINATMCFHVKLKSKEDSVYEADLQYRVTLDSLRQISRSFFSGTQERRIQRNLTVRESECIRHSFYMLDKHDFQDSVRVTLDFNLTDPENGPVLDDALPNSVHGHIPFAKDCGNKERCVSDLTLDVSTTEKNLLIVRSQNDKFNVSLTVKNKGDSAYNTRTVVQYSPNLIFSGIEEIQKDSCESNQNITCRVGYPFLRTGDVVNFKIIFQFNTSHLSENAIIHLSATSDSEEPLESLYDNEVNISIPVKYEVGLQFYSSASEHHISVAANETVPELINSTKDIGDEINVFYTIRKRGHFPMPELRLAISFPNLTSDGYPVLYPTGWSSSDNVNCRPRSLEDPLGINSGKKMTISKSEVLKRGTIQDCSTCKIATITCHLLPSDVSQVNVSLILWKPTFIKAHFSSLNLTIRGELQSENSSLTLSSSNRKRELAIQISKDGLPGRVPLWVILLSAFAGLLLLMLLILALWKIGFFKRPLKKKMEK
T4 sequence (P09055 21-798): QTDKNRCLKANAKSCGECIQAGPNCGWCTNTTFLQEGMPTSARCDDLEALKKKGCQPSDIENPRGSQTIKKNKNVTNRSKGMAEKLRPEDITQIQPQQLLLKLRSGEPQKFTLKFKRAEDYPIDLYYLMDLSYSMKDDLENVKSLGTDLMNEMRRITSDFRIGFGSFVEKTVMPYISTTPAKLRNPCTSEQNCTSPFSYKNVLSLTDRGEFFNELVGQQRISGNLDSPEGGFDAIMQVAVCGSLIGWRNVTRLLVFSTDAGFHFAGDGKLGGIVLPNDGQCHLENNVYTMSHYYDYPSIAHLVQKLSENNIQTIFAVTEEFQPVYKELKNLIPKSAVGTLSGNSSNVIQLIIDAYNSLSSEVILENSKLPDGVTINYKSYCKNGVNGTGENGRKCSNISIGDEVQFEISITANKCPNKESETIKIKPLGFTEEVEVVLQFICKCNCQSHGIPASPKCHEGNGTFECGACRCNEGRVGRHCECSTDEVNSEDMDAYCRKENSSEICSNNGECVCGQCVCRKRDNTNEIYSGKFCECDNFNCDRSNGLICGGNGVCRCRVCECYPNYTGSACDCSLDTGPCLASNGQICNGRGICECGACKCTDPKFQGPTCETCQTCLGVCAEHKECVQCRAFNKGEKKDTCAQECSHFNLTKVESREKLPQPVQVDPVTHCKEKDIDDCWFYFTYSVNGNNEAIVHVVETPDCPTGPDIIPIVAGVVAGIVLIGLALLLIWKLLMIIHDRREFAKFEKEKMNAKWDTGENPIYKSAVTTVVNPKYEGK
T6 sequence (P23229 24-938 limits assumed): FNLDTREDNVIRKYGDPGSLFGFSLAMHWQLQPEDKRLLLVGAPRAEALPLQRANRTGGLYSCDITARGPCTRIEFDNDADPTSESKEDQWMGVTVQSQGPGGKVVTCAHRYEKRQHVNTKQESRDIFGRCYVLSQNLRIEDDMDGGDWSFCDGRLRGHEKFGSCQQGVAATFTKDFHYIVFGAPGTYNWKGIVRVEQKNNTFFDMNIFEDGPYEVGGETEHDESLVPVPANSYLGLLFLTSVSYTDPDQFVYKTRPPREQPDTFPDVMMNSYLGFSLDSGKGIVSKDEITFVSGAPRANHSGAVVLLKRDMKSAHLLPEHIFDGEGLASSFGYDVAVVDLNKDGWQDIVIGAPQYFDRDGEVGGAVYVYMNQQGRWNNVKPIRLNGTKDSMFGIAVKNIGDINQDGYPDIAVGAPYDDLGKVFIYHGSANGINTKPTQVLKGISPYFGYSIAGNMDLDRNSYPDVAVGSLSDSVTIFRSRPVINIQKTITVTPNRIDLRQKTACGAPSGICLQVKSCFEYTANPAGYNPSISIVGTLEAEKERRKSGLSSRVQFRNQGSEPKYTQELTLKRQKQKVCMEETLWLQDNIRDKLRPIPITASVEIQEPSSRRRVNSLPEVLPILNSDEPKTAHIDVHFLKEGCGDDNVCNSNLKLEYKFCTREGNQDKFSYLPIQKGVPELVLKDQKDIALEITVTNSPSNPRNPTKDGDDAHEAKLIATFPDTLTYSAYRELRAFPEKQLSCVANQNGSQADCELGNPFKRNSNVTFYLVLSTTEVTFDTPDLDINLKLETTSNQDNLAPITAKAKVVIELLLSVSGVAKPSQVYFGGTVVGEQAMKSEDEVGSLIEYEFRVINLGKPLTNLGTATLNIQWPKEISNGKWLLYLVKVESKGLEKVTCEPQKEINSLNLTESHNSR
T6 sequence (P23229 942-1130 partner limits assumed): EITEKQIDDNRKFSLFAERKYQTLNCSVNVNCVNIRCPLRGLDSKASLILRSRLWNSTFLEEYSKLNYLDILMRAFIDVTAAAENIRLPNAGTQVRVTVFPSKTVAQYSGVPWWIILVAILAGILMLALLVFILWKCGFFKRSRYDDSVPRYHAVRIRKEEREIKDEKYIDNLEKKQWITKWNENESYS
T6 sequence (P05556 21-798): as the sequence (P05556 21-798) above

CC[C@]1(O)C[C@H]2CN(CCc3c([nH]c4ccccc34)[C@@](C(=O)OC)(c3cc4c(cc3OC)N(C=O)[C@H]3[C@@](O)(C(=O)OC)[C@H](OC(C)=O)[C@]5(CC)C=CCN6CC[C@]43[C@@H]65)C2)C1 [vincristine]
apoptosis (caspase-3) [1]: induced apoptosis
apoptosis (caspase-3) [2]: induced apoptosis

Eristostatin: short disintegrin compared with obtustatin (QEEPCATGPCCRRCKFKRAGKVCRVARGDWNDDYCTGKSCDCPKNPWNG) [reference compound]
IC50 (α9β1 integrin): > 10 µM
IC50 (α5β1 integrin): > 10 µM
IC50 (α2β1 integrin): > 10 µM
IC50 (α1β1 integrin [3]): > 10 µM
IC50 (α1β1 integrin [4]): > 10 µM
IC50 (α4β1 integrin): > 10 µM
IC50 (α1β1 integrin [5]): > 10 µM
effect on angiogenesis (fractal dimension) (angiogenesis): no affect
IC50 (α6β1 integrin): > 10 µM
IC50 (αvβ3 integrin): 2 µM
IC50 (α1β1 integrin [6]): > 10 µM

Echistatin: short RGD-containing disintegrin (QCESGPCCRNCKFLKEGTICKRARGDDMDDYCNGKTCDCPRNPHKGPAT) [reference compound]
inhibition of tumor development (tumor volume) (Lewis lung carcinoma): no effect
IC50 (α9β1 integrin): > 10 µM
IC50 (αIIbβ3 integrin): 0.05 µM
IC50 (α5β1 integrin): 0.05 µM
IC50 (α2β1 integrin): > 10 µM
IC50 (α1β1 integrin [3]): > 10 µM
IC50 (α1β1 integrin [4]): > 10 µM
IC50 (α4β1 integrin): > 10 µM
IC50 (α1β1 integrin [5]): > 10 µM
IC50 (α6β1 integrin): > 10 µM
IC50 (αvβ3 integrin): 0.0001 µM
IC50 (α1β1 integrin [6]): > 10 µM

Viperisrastatin (CTTGPCCRQCKLKPAGTTCWKTSRTSHYCTGKSCDCPVYQG)
IC50 (α9β1 integrin): > 10 µM
IC50 (αIIbβ3 integrin): > 10 µM
IC50 (α5β1 integrin): > 10 µM
IC50 (α2β1 integrin): > 10 µM
IC50 (α1β1 integrin [3]): 2e-05 µM
activity relative to obtustatin, mouse α1β1 integrin (α1β1 integrin [4]): similar
IC50 (α1β1 integrin [4]): 0.00025 µM
IC50 (α4β1 integrin): > 10 µM
IC50 (α1β1 integrin [5]): 8e-05 µM
IC50 (α6β1 integrin): > 10 µM
IC50 (αvβ3 integrin): > 10 µM
IC50 (α1β1 integrin [6]): 2e-06 µM

TNF-α
apoptosis (caspase-3) [1]: induced apoptosis
apoptosis (caspase-3) [2]: induced apoptosis

CKLKPAGTTC (obtustatin fragment)
inhibition of α1β1 integrin-mediated adhesion of α1K562 cells to collagen IV (α1β1 integrin [5]; in words): did not appreciably inhibit

Source: US20030186334A1, “KTS-disintegrins” (Temple University - Of the Commonwealth System of Higher …, priority 2001, published 2003)
